Assay results taken from patent US9265844B2, “Protease degradable polypeptides and uses thereof” (THE METHODIST HOSPITAL SYSTEM, priority 2010, dated 2016).
Values belong to the compound of their own block, whether it stands above or below them. No end group written: not given here. d = 2'-deoxy (DNA); r = 2'-OH (RNA)

What was measured:
HeLa cells = assay: Live cell imaging by fluorescence microscopy; type: cell-based, human; conditions: compared with 5L AuNPs
Protocol: Fluorescence images of live cells were acquired using a fluorescence microscopy system (Olympus, Tokyo, Japan). Briefly, HeLa and MDA-MB231 cells were collected by trypsinization, counted, and plated in a 96-well black clear-bottom culture plate (Corning Life Sciences, Pittston, Pa.) at a density of 1×10^3 cells per well. After 1 day, AuNPs (2.52×10^8 particles) were added and incubated for 12 hours. Cells were then washed three times with PBS and cultured in phenol red-free medium and imaged with a fluorescence microscopy at the time points indicated. In a separate set of experiment, cells were treated with CellTrackers, CM-DiI (2 μM), or CMTMR (7.5 μM, Invitrogen). One day after cell seeding, HeLa and MDA-MB231 cells were incubated with CM-DiI for 5 minutes at 37° C. and then further incubated at 4° C. for an additional 15 minutes according to manufacturer's protocol. After removing the medium, the cells were then incubated for an additional 15 minutes at 4° C. For CMTMR study, cells were incubated with CMTMR for 30 minutes at 37° C. and the medium was then replaced with fresh medium and incubated for a further 30 minutes. After labeling with CM-DiI or CMTMR, cells were washed three times with PBS and cultured in phenol red-free medium and imaged under a fluorescence microscopy as indicated.

Jurkat cells = assay: Fluorescence retention, flow cytometry; type: cell-based; conditions: day 4
Protocol: Jurkat cells (1.0×10^6 cells) were seeded in a 12-well culture plate (BD Falcon, San Jose, Calif.) together with 5L AuNPs (1.26×10^9 particles) in 400 μl RPMI 1640 medium and cultured for 24 hours in the dark at 37° C. in a 5% CO2 atmosphere. Cells (4×10^5) were then transferred to a FACS tube after three washes with PBS, and the FITC fluorescence signal inside the cells was measured using a BD LSR II flow cytometry (BD Biosciences, San Jose, Calif.). Remaining cells were cultured in 6-well culture plates (BD Falcon) in 4 ml RPMI 1640 medium. The procedure was repeated at different time points, up to 21 days. In a separate set of experiments, Jurkat cells (1.0×10^6) were incubated with CM-DiI (1 μM) or CMTMR (2 μM) following the manufacturer's instructions. On the designated day, the fluorescence signal of CM-DiI or CMTMR was measured using a PE filter set by a BD LSR II flow cytometry.

Cath E [1] = target: T1, Cath E (Homo sapiens, UniProt P14091); assay: Ex vivo NIRF imaging of MDA PATC-3 orthotopic tumors in mice; parameters: endogenous in cells; host or cells: primary patient PDAC tumour grafts (subcutaneous) and MDA PATC-3 orthotopic tumours in immunodeficient mice; conditions: organs excised, 48 hours after iv probe
T1 sequence (P14091 54-396): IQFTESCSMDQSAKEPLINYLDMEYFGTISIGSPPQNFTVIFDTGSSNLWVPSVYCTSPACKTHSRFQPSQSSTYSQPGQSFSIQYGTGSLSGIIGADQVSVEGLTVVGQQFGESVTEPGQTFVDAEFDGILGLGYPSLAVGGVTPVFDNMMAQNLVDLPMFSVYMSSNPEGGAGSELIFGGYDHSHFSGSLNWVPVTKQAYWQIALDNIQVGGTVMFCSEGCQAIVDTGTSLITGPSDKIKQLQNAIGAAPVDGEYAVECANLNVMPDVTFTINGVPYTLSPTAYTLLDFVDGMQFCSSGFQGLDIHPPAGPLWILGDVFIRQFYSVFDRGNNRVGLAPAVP
Protocol: To establish orthotopic tumors, mice were anesthetized as described above, and the pancreas was exposed through a left abdominal incision (laparotomy). Subconfluent MDA PATC-3 cells were detached with 0.25% trypsin-EDTA and cell viability was assessed by trypan blue exclusion. Cells (1×10^6) were resuspended in 50 uL of Hanks Balanced Salt Solution (HBSS) and directly injected into the pancreas (caudal). After tumor implantation, the pancreas was carefully returned to the peritoneal cavity and the abdomen was closed. Two months after tumor implantation, fluorescent probe was injected via tail vein and imaged 48 hours after injection.
(§1) Subcutaneous models (human material PDAC tumor grafts with mice bearing 2 tumors each n=4, MDA PATC-3 orthotopic model n=3, MPanc96 expressing low levels of Cath E (MPanc96-FG30) n=10, and MPanc96 expression high levels of Cath E (Mpanc96-Cath E) n=10) and two transgenic models with litter controls (n=5 each) were used to assess the usefulness of the Cath E-activatable imaging probe. […] White light and near infrared fluorescence (NIRF) images were acquired sequentially using Cy5.5 fluorescence filters (615-665 nm excitation filter and 695-770 nm emission filter). […] Fluorescence variations between different organs/tissues were corrected by subtracting the autofluorescence signals obtained from imaging organs/tissues of mice without any probe injected. […]

Cath E [2] = target: T2, Cath E (Mus musculus, UniProt P70269); assay: Ex vivo NIRF imaging of GEMM pancreas with PanIN lesions; type: in vivo; conditions: 48 hours after probe injection, 2 months old mice
T2 construct: from tissue; host or cells: pancreas, PDAC tumours and PanIN lesions of GEMMs (cLGL-KRasG12V/Bac-Ela-CreER; p53 conditional deletion/LSL-KrasG12D/Pdx1-Cre)
T2 sequence (P70269 60-397): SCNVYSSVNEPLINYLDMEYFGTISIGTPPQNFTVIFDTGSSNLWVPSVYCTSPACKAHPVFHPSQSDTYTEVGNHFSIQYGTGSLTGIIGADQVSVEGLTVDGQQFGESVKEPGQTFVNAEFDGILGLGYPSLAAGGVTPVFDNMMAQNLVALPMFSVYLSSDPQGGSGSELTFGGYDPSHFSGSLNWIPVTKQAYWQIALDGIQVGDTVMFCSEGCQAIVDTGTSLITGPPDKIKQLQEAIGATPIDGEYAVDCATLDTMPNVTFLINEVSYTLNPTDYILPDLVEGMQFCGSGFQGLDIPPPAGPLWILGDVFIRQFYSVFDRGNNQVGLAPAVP
Protocol: To assess whether Cath E activity served as a biomarker for in vivo imaging, studies were performed in human pancreatic cancer xenografts in immunodeficient mice (acquired from the National Cancer Institute with age of the mice ranging from 5-6 weeks old) and transgenic mice. Animals were housed at the MD Anderson Cancer Center animal facility. Mice used for optical imaging studies were fed with a chlorophyll-free diet. Genetic PanINs and PDAC mouse models were developed by crossing cLGL-KRas^G12V with Bac-Ela-CreER mice as described previously (Ji et al., Gastroenterology 137:1072-82 (2009)). These animals developed PanINs at 2 months and PDAC by ˜6 months. […]
as §1, with “The mean fluorescence flux” for “Fluorescence variations between different organs/tissues were corrected by subtracting the autofluorescence signals obtained”, “each image was defined as photons per second per centimeter squared per steradian (p/s/cm^2/sr).” for “imaging organs/tissues of mice without any probe injected.”

Cath E [3] = target: T2, Cath E; assay: Ex vivo NIRF imaging of GEMM PDAC tumors; type: in vivo
Protocol: To assess whether Cath E activity served as a biomarker for in vivo imaging, studies were performed in human pancreatic cancer xenografts in immunodeficient mice (acquired from the National Cancer Institute with age of the mice ranging from 5-6 weeks old) and transgenic mice. Animals were housed at the MD Anderson Cancer Center animal facility. Mice used for optical imaging studies were fed with a chlorophyll-free diet. Genetic PanINs and PDAC mouse models were developed by crossing cLGL-KRas^G12V with Bac-Ela-CreER mice as described previously (Ji et al., Gastroenterology 137:1072-82 (2009)). These animals developed PanINs at 2 months and PDAC by ˜6 months. […] PDAC in these mice developed in 6-8 weeks after birth (Bardeesy et al., Proc. Natl. Acad. Sci. USA 103:5947-52 (2006)). Littermates without PDAC served as controls. LSL-KRas^G12D, p53 floxed, and Pdx-1-Cre genetic mice were obtained from the Mouse Models for Human Cancer Consortium Repository (Rockville, Md.).
Subcutaneous models (human material PDAC tumor grafts with mice bearing 2 tumors each n=4, MDA PATC-3 orthotopic model n=3, MPanc96 expressing low levels of Cath E (MPanc96-FG30) n=10, and MPanc96 expression high levels of Cath E (Mpanc96-Cath E) n=10) and two transgenic models with litter controls (n=5 each) were used to assess the usefulness of the Cath E-activatable imaging probe. Animals were injected with a single dose of the optical imaging probe (1 nmol/100 μl PBS) or saline (controls) intravenously through tail vein using a 30 gauge syringe needle. The anesthetized mice were placed in the heated imaging platform of IVIS-100/Spectrum optical imaging systems (Xenogen/Caliper, Mountain View, Calif.). White light and near infrared fluorescence (NIRF) images were acquired sequentially using Cy5.5 fluorescence filters (615-665 nm excitation filter and 695-770 nm emission filter). Mice were imaged 48 hours post probe intravenous injection. Mice were sacrificed and organs/tissues were excised and rinsed with PBS then imaged for their associated NIRF. Fluorescence variations between different organs/tissues were corrected by subtracting the autofluorescence signals obtained from imaging organs/tissues of mice without any probe injected. General illumination setting and image acquisition parameters were: epi-illumination; 0.5 sec. exposure time; f/stop=2; binning (HR)4; field of view (FOV=12.9 cm or 6.5 cm width and height). The mean fluorescence flux from each image was defined as photons per second per centimeter squared per steradian (p/s/cm^2/sr). Acquired images were analyzed using Living Image 3.1 software (Xenogen/Caliper, Alameda, Calif.). Fluorescence contrast, defined as radiance, was quantified using identical size regions of interest (ROI).

Cath E [4] = target: T1, Cath E; assay: In vivo NIRF imaging of primary patient tumor grafts in mice; parameters: endogenous in cells; host or cells: primary patient PDAC tumour grafts (subcutaneous) and MDA PATC-3 orthotopic tumours in immunodeficient mice; conditions: 48 hours after iv probe, immunodeficient mice
Protocol: Human cancer specimens used for transplantation as primary tumor grafts were obtained from patients with pancreatic invasive ductal adenocarcinoma who had undergone initial surgical resection at UT MD Anderson Cancer Center (Kim et al., Nat. Protoc. 4:1670-80 (2009)). Nude mice were anesthetized with a single intraperitoneal injection of ketamine (100 mg/kg) and xylazine (10 mg/kg). After washing with sterile PBS, tumor fragments were placed in the subcutaneous space of immunodeficient mice (Kim et al., Nat. Protoc. 4:1670-80 (2009)). When the tumor was visible, it was dissected out and transplanted into male nude mice and allowed to grow for 30 days. […]
as §1, with “The mean fluorescence flux” for “Fluorescence variations between different organs/tissues were corrected by subtracting the autofluorescence signals obtained”, “each image was defined as photons per second per centimeter squared per steradian (p/s/cm^2/sr).” for “imaging organs/tissues of mice without any probe injected.”

[5] = test system: firefly luciferase in MDA-MB231-luc2 cells; assay: Luciferase gene silencing, bioluminescence; type: cell-based, human; conditions: 5 days, same conditions
Protocol: For the examination of the gene silencing effect, bioluminescence measurement was performed after incubating with various multilayered AuNPs. Cells were seeded in a 96-well black clear bottom culture plate at a density of 2.5×10^3 (or 1.25×10^4 of LNCaP-luc2) cells per well. One day later, different sRAuNP (1.26×10^8 particles) were added to each well and cultured for an additional 24 hours. The cells were further cultured in phenol red free medium for another 5 days. Manufacturer's direction was followed for the transfection with Lipofectamine. Bioluminescence measurement was performed using IVIS 200 (Caliper) immediately after addition of 125 μg mL^−1 of D-Luciferin (Regis).

Compound: CCCCCCCCCCCCCCCCCCN1C(=CC=CC2=[N+](CCCCCCCCCCCCCCCCCC)c3ccccc3C2(C)C)C(C)(C)c2cc(CNC(=O)c3ccc(CCl)cc3)ccc21.[Cl-] [CM-DiI]
signal strength (HeLa cells): much weaker than that of the 5L AuNPs
fluorescence intensity, % of the original intensity (Jurkat cells): 8%

increase in fluorescence in pancreas with PanIN lesions compared to normal pancreas (Cath E [2]): ~3 fold
increase in fluorescence in pancreas tumors compared to normal pancreas (Cath E [3]; 48 hours after 1 nmol probe iv, pooled GEMMs): ~15 fold
tumor to non-tumor signal ratio, tumor/bone (Cath E [3]; 48 hours after probe): 2.6
tumor to non-tumor signal ratio, tumor/kidney (Cath E [3]; 48 hours after probe): 1.9
tumor to non-tumor signal ratio, tumor/lung (Cath E [3]; 48 hours after probe): 2.9
tumor to non-tumor signal ratio, tumor/muscle (Cath E [3]; 48 hours after probe): 5.5
tumor to non-tumor signal ratio, tumor/normal pancreas (Cath E [3]; 48 hours after probe): 2.2
tumor to non-tumor signal ratio, tumor/small intestine (Cath E [3]; 48 hours after probe): 1.7
tumor to non-tumor signal ratio, tumor/spleen (Cath E [3]; 48 hours after probe): 3.9
Compound: Cath E-activatable imaging probe: Cy5.5-labeled Ala-Gly-Phe-Ser-Leu-Pro-Ala-Gly-CysCONH2 (SEQ ID NO:29) loaded on D-polyethylene glycol protected grafted copolymer (DPGC) (AGFSLPAGC-NH2; also: Cy5.5 label, place not given here, loaded on D-polyethylene glycol protected grafted copolymer (DPGC))
fluorescence signal at orthotopic primary cell tumors (Cath E [1]): strong signal specifically localized to the tumors in the pancreas
fluorescence signal at subcutaneous patient tumor grafts (Cath E [4]): strong specific fluorescence signal localized to the implanted tumor grafts

Compound: Free unformulated siRNA: siRNA against luciferase, SEQ ID NO:17/18, unformulated (chain 1 CGUACGCGGAAUACUUCGATT; chain 2 UCGAAGUAUUCCGCGUACGTT; sugars from the 5' end r19 d2, backbone not given here)
silencing effect [5]: didn't show any appreciable effect
